Values joined by “and” are separate entries in the source; they are usually repeats but may differ in a detail not shown here. Equal values may be shown once. Where a SMILES comes first, the peptide text is derived from it. The star is where a group is joined. X1 = CC(C(=O)*)c1ccc(-c2ccccc2)c(F)c1
Columns and labels:
[1] = tested on: HUVEC; test: LDH release assay (loss of cell membrane integrity); assay type: cell-based, human; conditions: 25 to 400 µM, 24 and 48 h, absorbance 492 nm, n = 6
Procedure: The synthesised AEP-K-FP was also tested on human umbilical vein endothelial cells (HUVECs) (ATCC- Manassas, VA, USA) (passages 35 to 39). HUVECs were routinely cultured in an endothelial basal medium (F-12K) containing 0.05 mg/mL of endothelial cell growth supplement (ECGS), 0.1 mg/mL of heparin (Gibco Gaithersburg, MD, USA) and adjusted to a final concentration of 10% v/v of FBS (according to the manufacturer’s recommendations).
(§1) The lactate dehydrogenase (LDH) assay provides an indication of loss of cell membrane integrity and was measured using a Promega CytoTox96® nonradioactive cytotoxicity assay kit (Southampton, UK) after 24 and 48 h of treatment. Absorption was read spectrophotometrically at 492 nm and converted to a percentage of the total LDH released from the positive control (untreated cells with complete lysis).

[2] = tested on: bEnd.3 monolayer; test: Penetration across in vitro BBB model (bEnd.3 monolayer on transwell); assay type: in vitro ADME, mouse; conditions: for Increase of percentage permeated relative to free FP: 200 µM; for Percentage permeated across in vitro BBB model (% of applied concentration): bEnd.3 monolayer on 12-transwell inserts, 200 µM in FBS-free, phenol-free culture media, HPLC C18, UV 248 nm
Procedure: The lyophilised powders of both AEP-K-FP and the free drug (FP) were dissolved in the FBS-free, phenol-free culture media in a concentration of 200 µM. Quantitative analysis of penetration for the free-drug and drug-attached delivery system was undertaken using HPLC (Agilent technology, Stockport, UK). The analysis was carried out using a hydrophobic C18 column (150 × 4.6 mm) at 25 °C and 20 μL of injection volume. The flow rate used was 0.6 mL/min, while the UV-detection wavelength was 248 nm, which is the λmax of FP [9]. The HPLC mobile phase solvents consisted of water/acetonitrile in which the gradient of eluent was run from 75:25 to 25:75 water: acetonitrile over 20 min. The standard curve for each molecule was obtained to calculate the percentage of the amount that transported across the in vitro BBB model.
To establish an in vitro BBB model, bEnd.3 cells were seeded on microporous membrane of 12-transwell inserts with complete culture media in a routine manner. Trans-endothelial electrical resistance (TEER) between apical and basolateral chambers was measured using an Evom voltometer (Sarasota, FL, USA) to determine the day of maximum values indicating tight junction formation, as previously described.

[3] = tested on: γ-secretase in C6 glial cells; test: Quantification of γ-secretase enzyme by sandwich ELISA in treated cells; assay type: cell-based; conditions: 200 µM in F-12K, 4 h, cell lysate supernatant, 6 readings, untreated control 28.43 ± 8.32
Procedure: C6 glial cells (ATCC-) (passages less than 20) were seeded using the complete growth medium, which was made according to the ATCC product sheet by addition of FBS to a final concentration of 2.5% v/v and horse serum (Gibco Gaithersburg, MD, USA) to a final concentration of 15% v/v to F-12K medium. Experiments were performed when cells reached confluence.
The investigation is based on sandwich enzyme-linked immunosorbent assay (ELISA) technology using a γ-secretase enzyme kit (Abbexa Ltd., Cambridge, UK). After confluence, C6 glial cells were treated with 200 µM FP or AEP-K-FP / F-12K solution. Wells containing untreated C6 cells were also included as a control. After 4 h of incubation, cells were washed and lysed to be centrifuged, and the supernatant was collected for assaying the γ-secretase activity immediately, according to kit instructions. Data were expressed as pg/mL, following kit instructions.

[4] = tested on: bEnd.3 cells; test: LDH release assay (loss of cell membrane integrity); assay type: cell-based, mouse; conditions: 25 to 400 µM, 24 and 48 h, absorbance 492 nm, n = 6
Procedure: Immortalised brain endothelial cells, bEnd.3 (passages 15–20), were cultured, according to the (manufacture ATCC) product sheet, in a Dulbecco’s modified eagle’s medium (DMEM) high glucose medium with L-pyruvate, containing 10% (v/v) foetal bovine serum (FBS) and 1% (v/v) of 500 U/mL Penicillin/Streptomycin (Gibco, Gaithersburg, MD, USA). Cells were seeded at a density of 5 × 10^4 cells per cm^2 in 24-well plates, which were incubated at 37 °C and 5% CO2 with replacement of the culture media every 3 days.
as §1

[5] = tested on: brain endothelial cells (bEnd.3); test: Hoechst 33342/propidium iodide (HPI) staining, cell death assessment; assay type: cell-based, mouse; conditions: 100, 300 and 400 µM, 24 h, n = 6
Description: For cell death assessment, Hoechst 33342 and propidium iodide (PI) salt (HPI) was used (Sigma-Aldrich, Gillingham, UK). These intracellular dyes stain cells in which the Hoechst 33342 binds to DNA, so it is staining the nuclei, whereas PI stains […], resulting in emission of light observed under a fluorescent microscopy. Live cells appear blue with intact membranes on microscopic examination, and those at early and late apoptotic phases appear bright blue with shrinkage. On the other hand, necrotic or damaged cells appear red with ruptured membranes.
HPI dye was prepared by adding 900 µL of DMEM to a mixture solution of 50 µL of 1mg/mL Hoechst 33342 and 50 µL of 2 μg/mL PI in a glass vial. After 24 h of treatment and incubation, which were performed as previously discussed, an epi fluorescent microscopy (Olympus microscope equipped with a Nikon D1X camera, UK) was used to identify and count the cells with distinct morphologies. Cell counts for healthy (living), apoptotic, or necrotic cells were obtained from the same treatment in duplicate wells and from three different fields for each well. Counting of the cells was measured according to their appearance then averaged and expressed as a percent of the total cell number.

[6] = Hydrolysis and drug release in acidic lysosome-mimicking buffer; assay type: physicochemical; conditions: phthalate buffer pH 4.5; 200 µM; static, 24 h, 37 °C; HPLC
Procedure: The AEP-K-FP was analysed for the hydrolysis of the amide linkage that coupled the drug molecules to the peptide carrier as well as its amino acids residues. This hydrolysis of the complex was evaluated in an acidic solution mimicking the lysosomal pH conditions that are likely to be found in an inflamed tissue such as that of AD-affected brain tissue. The acidic buffer solution was prepared using a phthalate solution, according to manufacturer’s instructions (Thomas Scientific, Swedesboro, NJ, USA), to obtain a final pH of 4.5. The AEP-K-FP was dissolved in this buffer solution at a concentration of 200 µM and incubated at static conditions for 24 h, 37 °C. Samples were collected and analysed by HPLC.

[7] = design: method as in PMID 7736686; conditions: cited from earlier work
[8] = tested on: γ-secretase; design: method as in PMID 20009055, PMID 18450517; conditions: at target brain tissue; cited from earlier work

SMILES | LDH release, % of positive control (complete lysis) [1] | Increase of percentage permeated relative to free FP ([2]; bEnd.3 BBB model, 1 h) | Increase of percentage permeated relative to free FP ([2]; bEnd.3 BBB model, 4 h) [times] | Percentage permeated across in vitro BBB model (% of applied concentration) ([2]; 1 h) [%] | Percentage permeated across in vitro BBB model (% of applied concentration) ([2]; 4 h) [%] | γ-secretase enzyme amount, Mean ± SD [3] | LDH release, % of positive control (complete lysis) [4] | Apoptotic cells, % of total cell number (HPI staining) [5] [%] | Healthy cells, % of total cell number (HPI staining) [5] [%] | Necrotic cells, % of total cell number (HPI staining) [5] [%] | Percentage of hydrolysed FP out of the total amount of AEP-K-FP [6] [%] | Biological half-life [7] [h] | Time to full excretion from the body [7] [h] | Required therapeutic concentration for significant pharmacological effect on γ-secretase activity [8] | Penetration, % of initial payload concentration ([2]; bEnd.3 BBB model, time not stated at this place (discussion))
CC(C)C[C@H](NC(=O)[C@H](CC(C)C)NC(=O)[C@H](CCCNC(=N)N)NC(=O)[C@H](CCCCN)NC(=O)[C@H](CCCNC(=N)N)NC(=O)[C@H](CC(C)C)NC(=O)[C@H](CCCCN)NC(=O)[C@H](CCCNC(=N)N)NC(=O)[C@H](CC(C)C)NC(=O)[C@H](CCCCNC(=O)C(C)c1ccc(-c2ccccc2)c(F)c1)NC(=O)C(C)c1ccc(-c2ccccc2)c(F)c1)C(=O)N[C@@H](CCCNC(=N)N)C(=O)O (stereo partly drawn) [AEP-K-FP] (X1-K(X1)LRKLRKRLLR-OH; N-terminus and C-terminus assumed) | less than 50% | more than 6 times | 4 | 16.3 | 35.9 | 14.6 pg/mL and 14.60 ± 3.51 pg/mL | less than 50% | ≤ 4.7 | ≥ 91 | ≤ 3.4 | 69.2 | – | – | – | –
CC(C(=O)O)c1ccc(-c2ccccc2)c(F)c1 (stereo not drawn) [FP, Flurbiprofen] | – | – | – | ≤ 2.7 | ≤ 8.5 | 8.2 pg/mL and 8.20 ± 3.80 pg/mL | – | – | – | – | – | 4 | ≤ 24 | 150−250 μM | less than 9%
